Assay [1] deals with T1, hGas6-FH-L314A, Q315A, P316A (alanine substitution variant) (human, UniProt Q14393 1-678).
T1 construct: Limits of the deletion derived as for hGas6-FH; also called alanine variant
T1 chain: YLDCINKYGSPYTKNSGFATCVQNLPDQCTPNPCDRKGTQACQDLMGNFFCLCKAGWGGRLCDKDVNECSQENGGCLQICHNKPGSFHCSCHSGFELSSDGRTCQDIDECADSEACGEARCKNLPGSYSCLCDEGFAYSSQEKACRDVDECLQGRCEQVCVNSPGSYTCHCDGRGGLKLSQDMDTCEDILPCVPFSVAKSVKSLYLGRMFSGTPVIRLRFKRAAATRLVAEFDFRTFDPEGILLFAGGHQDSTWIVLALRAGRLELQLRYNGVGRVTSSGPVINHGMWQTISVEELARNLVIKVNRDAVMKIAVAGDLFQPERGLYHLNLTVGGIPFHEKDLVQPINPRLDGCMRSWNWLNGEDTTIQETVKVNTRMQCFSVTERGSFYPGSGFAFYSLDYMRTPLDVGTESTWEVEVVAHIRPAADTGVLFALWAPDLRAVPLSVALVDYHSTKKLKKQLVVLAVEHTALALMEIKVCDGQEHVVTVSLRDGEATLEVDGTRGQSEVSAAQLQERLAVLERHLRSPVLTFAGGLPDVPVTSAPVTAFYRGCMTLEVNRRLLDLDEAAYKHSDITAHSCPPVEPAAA
Nature of the assay: ELISA, variant captured by anti-FLAG, biotinylated antibody. As to the method:
First, 2 μg/mL anti-FLAG antibody [Monoclonal ANTI-FLAG M2 antibody produced in mouse (manufactured by Sigma-Aldrich Co. LLC) diluted with PBS (manufactured by Nacalai Tesque, Inc.)] was dispensed at 50 μL/well to a 96-well plate for ELISA (manufactured by Nalge Nunc International), and the plate was left standing overnight at 4° C. for adsorption. After removal of the immobilization solution, 1% BSA-PBS (manufactured by Nacalai Tesque, Inc.) was added thereto at 300 μL/well, and the plate was left standing at room temperature for 1 hour for blocking and washed five times with Tween 20-PBS (manufactured by Wako Pure Chemical Industries Ltd.).
Each antibody solution was dispensed thereto at 50 μL/well, and the plate was left standing at room temperature for 1 hour. This plate was washed five times with Tween 20-PBS. Then, Streptavidin HRP Conjugate (manufactured by R&D Systems, Inc.) diluted 200-fold with 1% BSA-PBS was dispensed thereto at 50 μL/well, and the plate was left standing at room temperature for 1 hour. This plate was washed five times with Tween 20-PBS, and TMB (manufactured by Sigma-Aldrich Co. LLC) was added thereto at 50 μL/well and reacted. […] The absorbance at a sample wavelength of 450 nm and a reference wavelength of 570 nm (450 nm-570 nm) was measured using a plate reader.

For assay [2], the target named is T2, human Mer forcedly expressed on HEK293F reporter cells (human, UniProt Q12866 21-999).
T2 sequence (looked up): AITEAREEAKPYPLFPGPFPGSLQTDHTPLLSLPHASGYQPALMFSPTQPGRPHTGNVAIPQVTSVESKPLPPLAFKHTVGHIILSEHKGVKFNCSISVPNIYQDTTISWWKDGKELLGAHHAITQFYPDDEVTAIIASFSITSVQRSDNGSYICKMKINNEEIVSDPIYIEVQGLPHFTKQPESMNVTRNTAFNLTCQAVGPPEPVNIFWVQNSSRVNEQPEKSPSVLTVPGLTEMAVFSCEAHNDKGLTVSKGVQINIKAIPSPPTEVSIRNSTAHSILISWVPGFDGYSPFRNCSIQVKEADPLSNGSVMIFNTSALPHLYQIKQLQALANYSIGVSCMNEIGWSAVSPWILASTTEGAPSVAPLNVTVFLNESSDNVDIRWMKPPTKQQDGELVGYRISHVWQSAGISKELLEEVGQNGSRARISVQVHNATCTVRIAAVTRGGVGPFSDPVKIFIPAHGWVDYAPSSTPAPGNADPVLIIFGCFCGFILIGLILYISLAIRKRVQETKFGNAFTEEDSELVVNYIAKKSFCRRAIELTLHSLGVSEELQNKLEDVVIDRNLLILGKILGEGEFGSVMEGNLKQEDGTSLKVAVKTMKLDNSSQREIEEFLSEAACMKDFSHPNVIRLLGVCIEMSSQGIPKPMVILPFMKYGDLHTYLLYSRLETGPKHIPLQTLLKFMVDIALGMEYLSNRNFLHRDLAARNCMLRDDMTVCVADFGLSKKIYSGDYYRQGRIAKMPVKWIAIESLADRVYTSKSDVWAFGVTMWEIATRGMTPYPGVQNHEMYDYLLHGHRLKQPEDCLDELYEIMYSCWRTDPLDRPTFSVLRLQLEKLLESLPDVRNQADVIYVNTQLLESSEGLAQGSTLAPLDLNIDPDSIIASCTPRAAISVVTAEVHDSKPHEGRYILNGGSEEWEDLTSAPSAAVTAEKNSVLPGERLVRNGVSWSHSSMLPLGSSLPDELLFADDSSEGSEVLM
Nature of the assay: cell-based or functional assay.

The target in assay [3] is T3, human Sky forcedly expressed on HEK293F reporter cells (human, UniProt Q06418 41-890).
T3 sequence (looked up): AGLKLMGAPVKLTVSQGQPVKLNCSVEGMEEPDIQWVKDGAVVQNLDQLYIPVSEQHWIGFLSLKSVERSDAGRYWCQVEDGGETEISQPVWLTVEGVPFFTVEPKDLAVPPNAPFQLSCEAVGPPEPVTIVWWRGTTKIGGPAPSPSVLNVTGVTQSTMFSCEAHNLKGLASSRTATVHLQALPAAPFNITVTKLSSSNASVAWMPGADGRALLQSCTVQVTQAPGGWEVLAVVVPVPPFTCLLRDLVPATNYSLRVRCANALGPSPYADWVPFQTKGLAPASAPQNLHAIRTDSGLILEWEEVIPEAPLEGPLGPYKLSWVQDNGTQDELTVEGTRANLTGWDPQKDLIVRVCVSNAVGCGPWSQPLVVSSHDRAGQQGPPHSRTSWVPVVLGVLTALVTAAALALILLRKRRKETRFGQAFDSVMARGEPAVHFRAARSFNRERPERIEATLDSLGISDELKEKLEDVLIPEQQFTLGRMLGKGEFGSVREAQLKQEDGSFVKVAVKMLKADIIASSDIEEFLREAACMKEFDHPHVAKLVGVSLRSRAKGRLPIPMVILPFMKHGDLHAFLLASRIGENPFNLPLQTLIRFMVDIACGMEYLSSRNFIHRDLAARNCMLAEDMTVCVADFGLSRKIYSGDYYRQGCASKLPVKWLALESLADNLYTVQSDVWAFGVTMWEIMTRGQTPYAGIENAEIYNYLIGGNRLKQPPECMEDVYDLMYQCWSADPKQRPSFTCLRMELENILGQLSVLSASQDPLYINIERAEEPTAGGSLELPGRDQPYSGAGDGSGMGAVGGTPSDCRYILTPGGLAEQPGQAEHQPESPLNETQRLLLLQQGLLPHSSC
Kind of assay: cell-based or functional assay.

B1: anti-human Gas6 mouse-rat chimeric antibody KM5321-rKG1 (antibody, V domains shown)
VH: QIQLVQSGPELKKPGETVKISCRASGYTFTNYGMNWVKQAPGKGLKWMGWINTNTGEPTYTEEFKGRFAFSLETSATTAYLQINDLKNEDTATYFCARDEGWFVYWGQGTLITVSA
VL: ETTVTQSPASLSVATGEKVTIRCITSTDIDDDMNWYQQKPGEPPKLLISEGNTLRPGVPSRFSSSGYGTDFVFTIENTLSEDVADYYCLQTDSVPLTFGAGTKLELK
notes: 96 and 98 are not tied in words; also called KM5321-rKG1 antibody
With B1, the binding result in assay [1] is reported as “no binding”.

B2: anti-human Gas6 mouse-rat chimeric antibody KM5320-rKG1 (antibody, V domains shown)
VH: QIQLVQSGPELKKPGETVKISCKASGYTFTNYGMNWVKQAPGKGLKWMGWINTETGEPTYSDDFKGRFAFSLETSATTAYLQINNLRNEDMATYFCAREDGYYGTLDYWGQGTSVTVSS
VL: SIVMTQTPKFLLVSAGDRVTITCKASQSVSNDVAWYQQKPGQSPKVLIYYASNRYTGVPDRFTGSGYGTDFTFTISTVQAEDLAVYFCQQDYSSPWTFGGGTKLEIK
notes: 92 and 94 are not tied in words; also called KM5320-rKG1 antibody
As for B2, in assay [1], the binding result was “no binding”.

B3: C-terminally FLAG-tagged human Gas6 recombinant protein (hGas6-F) (ligand, not shown: small tags and cut ends)
chain: ALLPAREATQFLRPRQRRAFQVFEEAKQGHLERECVEELCSREEAREVFENDPETDYFYPRYLDCINKYGSPYTKNSGFATCVQNLPDQCTPNPCDRKGTQACQDLMGNFFCLCKAGWGGRLCDKDVNECSQENGGCLQICHNKPGSFHCSCHSGFELSSDGRTCQDIDECADSEACGEARCKNLPGSYSCLCDEGFAYSSQEKACRDVDECLQGRCEQVCVNSPGSYTCHCDGRGGLKLSQDMDTCEDILPCVPFSVAKSVKSLYLGRMFSGTPVIRLRFKRLQPTRLVAEFDFRTFDPEGILLFAGGHQDSTWIVLALRAGRLELQLRYNGVGRVTSSGPVINHGMWQTISVEELARNLVIKVNRDAVMKIAVAGDLFQPERGLYHLNLTVGGIPFHEKDLVQPINPRLDGCMRSWNWLNGEDTTIQETVKVNTRMQCFSVTERGSFYPGSGFAFYSLDYMRTPLDVGTESTWEVEVVAHIRPAADTGVLFALWAPDLRAVPLSVALVDYHSTKKLKKQLVVLAVEHTALALMEIKVCDGQEHVVTVSLRDGEATLEVDGTRGQSEVSAAQLQERLAVLERHLRSPVLTFAGGLPDVPVTSAPVTAFYRGCMTLEVNRRLLDLDEAAYKHSDITAHSCPPVEPAAA
modifications: gamma-carboxylated glutamic acid residues in the Gla domain (producer cells co-express rat VKOR and human GGCX); positions not given
As to B3, in assay [2], the “luminescence intensity (Egr1-luciferase reporter, HEK293F forced to express human Mer)” value was approximately 3 fold. In addition, the “luminescence intensity (Egr1-luciferase reporter, HEK293F forced to express human Sky)” value in assay [3] is approximately 3 fold.

Values taken from patent publication US20180339041A1 (Kyowa Kirin, published 2018).
